{"source": "paper PMC11358422", "assay_in_all_cases": "ELISA", "key": {"[1]": {"system": "gluten (gliadin) (wheat)", "conditions": "wheat flour suspension; 5' biotin; ELISA: suspension coated in 100 mM NaHCO3 pH 9.6, 5% CSA block, aptamer in Base Pair Aptamer Folding Buffer, washes 0.02% Tween-20 in PBS; microscopy: aptamer …"}, "[2]": {"target": "gelatin (collagen) (bovine skin) (UniProt P02453+P02465)", "sequence (P02453 whole entry, chain 1 of 2)": "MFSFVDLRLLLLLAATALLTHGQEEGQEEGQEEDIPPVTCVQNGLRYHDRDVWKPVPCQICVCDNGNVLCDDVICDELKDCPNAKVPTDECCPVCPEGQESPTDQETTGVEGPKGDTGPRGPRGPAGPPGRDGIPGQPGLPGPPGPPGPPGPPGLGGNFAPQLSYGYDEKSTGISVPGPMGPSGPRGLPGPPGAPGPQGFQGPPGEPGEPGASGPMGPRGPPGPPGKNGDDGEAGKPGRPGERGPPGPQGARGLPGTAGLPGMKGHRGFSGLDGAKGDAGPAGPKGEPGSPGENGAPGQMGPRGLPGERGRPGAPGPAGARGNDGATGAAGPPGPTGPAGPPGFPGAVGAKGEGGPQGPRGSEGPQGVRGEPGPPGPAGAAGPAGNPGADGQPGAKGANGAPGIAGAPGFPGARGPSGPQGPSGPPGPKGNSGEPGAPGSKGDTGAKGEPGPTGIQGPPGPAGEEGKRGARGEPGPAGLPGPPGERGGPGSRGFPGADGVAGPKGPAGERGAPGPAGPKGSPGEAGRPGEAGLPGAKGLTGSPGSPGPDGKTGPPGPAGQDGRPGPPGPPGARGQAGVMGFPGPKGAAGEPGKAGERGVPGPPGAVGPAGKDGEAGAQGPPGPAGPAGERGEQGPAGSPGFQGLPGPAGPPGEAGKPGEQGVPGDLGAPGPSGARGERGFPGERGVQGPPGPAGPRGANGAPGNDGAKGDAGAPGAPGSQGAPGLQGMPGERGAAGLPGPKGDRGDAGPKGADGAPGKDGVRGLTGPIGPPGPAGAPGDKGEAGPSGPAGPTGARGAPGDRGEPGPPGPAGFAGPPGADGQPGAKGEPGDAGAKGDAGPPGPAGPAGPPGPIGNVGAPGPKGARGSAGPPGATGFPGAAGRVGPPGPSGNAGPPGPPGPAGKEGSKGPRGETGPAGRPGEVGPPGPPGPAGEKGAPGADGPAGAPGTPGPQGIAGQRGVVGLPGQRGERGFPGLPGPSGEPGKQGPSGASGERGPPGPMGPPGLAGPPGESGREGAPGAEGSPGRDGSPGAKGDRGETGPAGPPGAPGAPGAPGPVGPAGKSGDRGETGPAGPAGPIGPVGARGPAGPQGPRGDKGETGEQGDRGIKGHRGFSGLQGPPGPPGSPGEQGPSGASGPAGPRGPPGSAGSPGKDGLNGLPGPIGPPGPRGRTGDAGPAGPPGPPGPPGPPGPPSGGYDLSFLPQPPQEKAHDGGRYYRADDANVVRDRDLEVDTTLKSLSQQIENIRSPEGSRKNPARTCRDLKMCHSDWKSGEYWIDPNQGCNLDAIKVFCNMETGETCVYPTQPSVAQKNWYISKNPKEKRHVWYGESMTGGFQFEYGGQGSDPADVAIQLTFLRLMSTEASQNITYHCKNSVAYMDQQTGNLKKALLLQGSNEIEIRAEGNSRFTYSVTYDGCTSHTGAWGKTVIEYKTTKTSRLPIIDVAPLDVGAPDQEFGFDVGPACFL", "sequence (P02465 whole entry, chain 2 of 2)": "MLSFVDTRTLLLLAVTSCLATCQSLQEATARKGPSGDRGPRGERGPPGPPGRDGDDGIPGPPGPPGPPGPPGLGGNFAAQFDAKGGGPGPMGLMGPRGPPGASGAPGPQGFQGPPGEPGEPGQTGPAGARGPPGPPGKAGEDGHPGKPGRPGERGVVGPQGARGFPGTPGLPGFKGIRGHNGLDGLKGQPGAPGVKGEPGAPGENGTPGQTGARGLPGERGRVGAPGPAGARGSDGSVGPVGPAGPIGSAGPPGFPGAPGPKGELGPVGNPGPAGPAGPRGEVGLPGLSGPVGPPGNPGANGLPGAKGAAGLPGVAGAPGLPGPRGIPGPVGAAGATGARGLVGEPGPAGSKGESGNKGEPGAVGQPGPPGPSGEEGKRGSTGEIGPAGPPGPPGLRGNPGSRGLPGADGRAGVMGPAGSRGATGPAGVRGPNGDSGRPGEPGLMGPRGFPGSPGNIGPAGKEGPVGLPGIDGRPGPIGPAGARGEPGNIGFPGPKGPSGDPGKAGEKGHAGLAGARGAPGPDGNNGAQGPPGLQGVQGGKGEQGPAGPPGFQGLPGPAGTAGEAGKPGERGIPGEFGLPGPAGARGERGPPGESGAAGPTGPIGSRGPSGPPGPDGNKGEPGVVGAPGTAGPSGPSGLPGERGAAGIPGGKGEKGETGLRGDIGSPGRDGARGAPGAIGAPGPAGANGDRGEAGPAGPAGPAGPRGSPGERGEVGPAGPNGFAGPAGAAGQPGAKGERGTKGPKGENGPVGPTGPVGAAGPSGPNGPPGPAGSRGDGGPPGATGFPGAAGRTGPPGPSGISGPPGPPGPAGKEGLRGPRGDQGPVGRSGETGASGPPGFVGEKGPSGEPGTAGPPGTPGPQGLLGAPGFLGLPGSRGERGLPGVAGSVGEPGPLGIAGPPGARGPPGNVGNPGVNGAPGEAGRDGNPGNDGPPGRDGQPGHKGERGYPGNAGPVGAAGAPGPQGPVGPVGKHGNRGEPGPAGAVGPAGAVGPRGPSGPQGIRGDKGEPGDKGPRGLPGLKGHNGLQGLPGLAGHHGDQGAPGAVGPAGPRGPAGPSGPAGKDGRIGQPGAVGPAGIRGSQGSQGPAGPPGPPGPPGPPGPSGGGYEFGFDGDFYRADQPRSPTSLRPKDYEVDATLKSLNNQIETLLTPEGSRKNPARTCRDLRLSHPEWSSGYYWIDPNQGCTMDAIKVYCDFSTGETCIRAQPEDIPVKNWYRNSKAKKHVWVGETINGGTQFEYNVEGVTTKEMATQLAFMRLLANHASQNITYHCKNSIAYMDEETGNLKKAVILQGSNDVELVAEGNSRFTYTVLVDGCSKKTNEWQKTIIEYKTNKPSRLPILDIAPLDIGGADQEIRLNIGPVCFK", "conditions": "gelatin suspension; 5' biotin; ELISA: suspension coated in 100 mM NaHCO3 pH 9.6, 5% CSA block, aptamer in Base Pair Aptamer Folding Buffer, washes 0.02% Tween-20 in PBS; microscopy: aptamer …"}, "[3]": {"target": "T1, beta-casein / beta-casomorphin-7 (UniProt P02666)", "T1 sequence": "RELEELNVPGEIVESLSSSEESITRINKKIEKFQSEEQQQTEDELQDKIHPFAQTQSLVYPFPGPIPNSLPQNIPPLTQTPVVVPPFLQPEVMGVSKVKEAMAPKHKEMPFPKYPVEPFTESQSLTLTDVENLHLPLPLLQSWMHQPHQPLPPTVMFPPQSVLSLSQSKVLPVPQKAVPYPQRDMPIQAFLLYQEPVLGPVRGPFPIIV", "conditions": "raw milk; 5' biotin; ELISA: suspension coated in 100 mM NaHCO3 pH 9.6, 5% CSA block, aptamer in Base Pair Aptamer Folding Buffer, washes 0.02% Tween-20 in PBS; microscopy: aptamer …"}, "[4]": {"target": "hemoglobin (UniProt P69905+P68871)", "sequence (P69905 2-142, chain 1 of 2)": "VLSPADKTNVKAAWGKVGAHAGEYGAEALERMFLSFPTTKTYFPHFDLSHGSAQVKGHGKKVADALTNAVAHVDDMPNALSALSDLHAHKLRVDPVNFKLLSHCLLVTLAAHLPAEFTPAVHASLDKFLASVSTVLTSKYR", "sequence (P68871 2-147, chain 2 of 2)": "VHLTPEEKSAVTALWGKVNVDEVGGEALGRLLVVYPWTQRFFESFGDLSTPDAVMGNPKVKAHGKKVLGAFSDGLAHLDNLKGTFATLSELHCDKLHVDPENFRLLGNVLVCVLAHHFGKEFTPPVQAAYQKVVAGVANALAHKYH", "conditions": "5' biotin, ELISA: suspension coated in 100 mM NaHCO3 pH 9.6, 5% CSA block, aptamer in Base Pair Aptamer Folding Buffer, washes 0.02% Tween-20 in PBS, microscopy: aptamer …"}, "[5]": {"target": "T2, beta-lactoglobulin (UniProt P02754)", "T2 sequence": "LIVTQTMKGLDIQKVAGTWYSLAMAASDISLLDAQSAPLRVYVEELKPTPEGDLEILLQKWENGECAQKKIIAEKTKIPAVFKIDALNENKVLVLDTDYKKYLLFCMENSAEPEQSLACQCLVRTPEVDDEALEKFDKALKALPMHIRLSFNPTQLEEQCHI", "conditions": "raw milk; 5' biotin; ELISA: suspension coated in 100 mM NaHCO3 pH 9.6, 5% CSA block, aptamer in Base Pair Aptamer Folding Buffer, washes 0.02% Tween-20 in PBS; microscopy: aptamer …"}, "[6]": {"system": "parvalbumin (trout ('fish traut'))", "conditions": "fish trout suspension; 5' biotin; ELISA: suspension coated in 100 mM NaHCO3 pH 9.6, 5% CSA block, aptamer in Base Pair Aptamer Folding Buffer, washes 0.02% Tween-20 in PBS; microscopy: aptamer …"}}}
{"sequence": "CCAGTCTCCCGTTTACCGCGCCTACACATGTCTGAATGCC [Gli 4]", "values": [{"measurement": "binding signal", "setting": "[1]", "result": 0.519, "unit": "OD405"}]}
{"sequence": "CTAGGCGAAATATAGCTACAACTGTCTGAAGGCACCCAAT [Gli 1]", "values": [{"measurement": "binding signal", "setting": "[1]", "result": 0.577, "unit": "OD405"}]}
{"sequence": "TTTTTGGTTGACGGCAGTCGGCGGTATGCGCATATCGTGTTGGTA [D1]", "values": [{"measurement": "binding signal", "setting": "[2]", "result": 0.4, "unit": "OD405"}]}
{"sequence": "ATCCGTCACACCTGCTCTATACACATTGTGTTTACTCCCAGTTTTTTAGACTTATGGTGTTGGCTCCCGTAT [seqU5]", "values": [{"measurement": "binding signal", "setting": "[3]", "result": 0.51, "unit": "OD405"}]}
{"sequence": "ACGCACACCAGAGACAAGTAGCCCCCCAAACGCG [G15 T1]", "values": [{"measurement": "binding signal", "setting": "[4]; signal at MilliQ control level", "result": 0.015, "unit": "OD405"}]}
{"sequence": "ATCCGTCACACCTGCTCTAGACGAATATTGTATCCTCATTAGATCAAAAACGGGTGGTGTTGGCTCCCGTAT [CTx 2R (CTx 2R-2h)]", "values": [{"measurement": "binding signal", "setting": "[2]", "result": 0.615, "unit": "OD405"}]}
{"sequence": "CGACGATCGGACCGCAGTACCCACCCACCAGCCCCAACATCATGCCCATCCGTGTGTG [BLG14]", "values": [{"measurement": "binding signal", "setting": "[5]", "result": 0.394, "unit": "OD405"}]}
{"sequence": "GGCAGGAAGACAAACACCAGGTGAGGGAGACGACGCGAGTGTTAGATGGTAGCTGTTGGTCTGTGGTGCTGT [Hb]", "values": [{"measurement": "binding signal", "setting": "[4]", "result": 0.388, "unit": "OD405"}]}
{"sequence": "TTAGCGAGCTGCACACACAATGGACTCGTCATACCGTGCTGTTT [HA]", "values": [{"measurement": "binding signal", "setting": "[4]", "result": 0.471, "unit": "OD405"}]}
{"sequence": "TTTTTTTTGCCAAAGGAGGCGAGAGATAAAAGATTGCGAATCCATTCG [Par1]", "values": [{"measurement": "binding signal", "setting": "[6]", "result": 0.412, "unit": "OD405"}]}
